Assay: yeast display, Sf9 membrane polyspecificity reagent, FACS + sequencing; frameworks hold sequencing errors
In short: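 Nanobodies came from a synthetic yeast display library in Saccharomyces cerevisiae BJ5465, induced with galactose for 36–48 hours and stained for 1 hour at 4 °C with 10% biotinylated, detergent-solubilized Sf9 membrane reagent. Cells were enriched on streptavidin microbeads and then FACS-sorted, with low and high (top ~1%) gates set on anti-HA fluorescence for expression and streptavidin fluorescence for reagent binding. Each polyreactivity label reflects the gate a clone came from. Genes were amplified by colony PCR, sequenced by MiSeq 2 × 250 and filtered by CDR length.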

Sequence | polyreactivity (PSR sort gate)
QVQLVESGGGLVQAGGSLRLSCAASGSTIVGYAMGWYRQAPGKERELVAAISGSGTSTYYADSVKGRFTISRDNAKNTVYLQMNSLKPEDSAVYYCNADPIFVYSSYNYWGQGTQVTVSS | low polyreactivity
QVQLVESVGGLVQAGGSLRLSCAASGSTFTAYAMGWYRQAPGKERELVAAITSGGSKNYADSVKGRFTISRDNAKNTVYLQMNSLKPEDTAVYYCNADDYWLDSWSSFLWYDYWGQGTQVTVSS | low polyreactivity
QVQLVESGGGLVHAGGSLRLSCAASGSTFNTNTMGWYRQAPGKERELVAAITKSGGSTYYADSVKGRFTISRDNAKNTVYLQMNSLKPEDTAVYYCNAYPDDSYKYLYWSDGDYWGQGTQVTVSS | low polyreactivity
QVQLVESGGGLVQAGGSLRLSCAASGRIIAIYAMGWYRPAPGKERELVAAISWNSGRTNYADSVKGRFTISRDNAKNTVYLQMNSLKPEDTAVYYCAADGDRYLVSTSYPEYDYWGQGTQVTVTS | low polyreactivity
QVQHVESGGGLVQAGGSLRLSCAASGRIFVPYAKGWYRQPPGKERELVADISLRGGTTYYADSVKGRFTISRDNAKNTVYLQMNSLKPEDTAVYYCAARGYVSVWRPYHWFVAGDYWGQGTQVTVSS | high polyreactivity
QVQLVESGGGLVQAGGSLRLSCAASGFTFNFYAMGWYRQAPGKESELVASITSSGARTYYADSVKGRFTISSDNPKNTVYLQMNSLKPEDTAVYYCAARVYRYSASRAYDYWGQGTQVTVSS | high polyreactivity
QVQIVESGGGLFQAGGSRRLSCAASGVMFSYYAMGWYRQAPGKDRELVAAISRRVGSTYYADSVKGRFTISRDNAKNTVYLQMNSLITQVTAVYYWNAYLYSRYEFDYWVQGTQVTVSS | high polyreactivity
QVQLVESGGGLVQAGGSLRLSCAASGLTFDKIAMGWYRQAPGKERELVAAISTSGGGTYYADSVKGRFTISRDNPKTTVYLQRNSLKPEDTAVYYCAAKHYYYSPYVRYDPPPGYYWGQGTQVTVSS | high polyreactivity
QVQLVDSGGGLVQAGGSLRLSCAASGRTFKPYTMGWYRQAPGKERDLVAAISARGVSTYYADSVKGRFTISRDNAKNTGYLQMNSLKPEDTAVYYCNRVYFIGYRVFPPPMDYWGQGTQVTVSS | high polyreactivity
QVQLVESGGGLVQAGGSLRLSCAASGRTFYKYGMGWYRQAPGKERELVARINSNGGSTYYADSVKGRFTISRDNAKNTVYLQMNSLKPADTAVYYCARSYVRSYGYYYWGQGPQVTVSS | low polyreactivity
QVQHVESGGRLVQAGGSLRLICAASGRTFAPYAMGWYRQAPGKVRELVARITWSGTDTYYADSVKGRFTISRDNAKNTVYLQMNSLKPEDTAVYYCAADARYSRRYYYWGEGTQVTVSS | low polyreactivity
QVQLVESGGGLVQAGGSLRLSCAASGSIFKGYAMGWYRQAPGKERELVAAITIDGSTYYADSVKGRFTISRDNAKNTVYLQMNSLKPEDTAVYYCAAVYLWYGSWPLHFAAYDYWGQGTQVTVSS | low polyreactivity
QVQLVESGGGLVQAGGSLRLSCAASGSTFYRNAMGWYRQAPGKERELVATINRGGSTYYADSVKGRFTISRDNAKNTVYLQRNSLNPEDTAVYYCAKDSYYAGRFIYTPRAKYGYWGQGTQVTVSS | high polyreactivity
QVQLVESGGGLVQAGGSLRLSCAASGFTFNDYAMGWYRQAPGKERELVAAIDWSGGRTYYADSVKGRFTISRDNAKNTVYLQLNSLKPEDTAVDYCAVEDLSHAYVQHYRYGYGYWGQGTQVTVSS | low polyreactivity
QVQLVESGVGLVQAGGSLRLSCAASGSTFLTNVMGWYRQAPGKERELVAAITIGGSTNYADSVKGRFTISRDNAKNSVYLQMNSLKPEDTAVYYCATDIRRKPRYVDYEYWGQGTQVSVSS | low polyreactivity
QVQLVESGGGLVQAGGCLRLSCAASGVIFTRNVMGWYRQAPGKERELVAAISSGGRTYYADSVKGRFTISRDNAKNTVYLQMNSLKQEDTAVYYCNAGNRGVYRYDYWGQGTQVTVSS | high polyreactivity

Sequence | polyreactivity (PSR sort gate)
QVQLVESGGGLVQAGGSLRLSCAASGSIFYPYAMGWYRKAPGKERELVASITINDGSTYYADSVKGRFTISRDNAKHTFYLPMNRLIQEDPAVYYCNVDPVPGFGSVYEYWGQGTQVTVSS | low polyreactivity
QVQLVESGGGLVQAGGSLRLSCAASGRIFYYNVMGWYRQAHGKERELVASISYSSTRTYYADSVKGRFTISRDNAKNTVYLQMNRLKQEDTAVYYCAVDTYAYRGVSYWSERTYYYWGQGTQVNVSS | low polyreactivity
QVQLVESGGGIVQAGGSLRLSCAASGRTFTYNAMGRYRQAPGKERELVAAITYRGGSTYYADSVKGRFTISRDNAKNTVYLQMNSLKPEDTAVYYCAARVSYYRYNTPHYYYWGQGTQVTVSS | high polyreactivity
QVQLVESGGGLVQAGGRLRLSCAATGRTFLAYAMGWYREAPGKERELVAAITIGGGTYADSVKGRFTISRDNAKNTVYLQMNSLKQEDTAVYYCAKPGWYDGDYWGQGTQVTVSS | low polyreactivity
QVHLVESGGGLVQAGCSLRLICAASGRIFTLYAMGWYRQAPGTEMEFVAAINRGGSTNYADSVKGRFTISRDNAKNTVYLQMNSLKPEVTAVYYCAAITTSRFRTYSYDYWGQGTKVTVSS | high polyreactivity
QVQLVESGGVLVQAGGSLRLSCAASGSTFLWYAMGWYRQAPGKEREMVAAISRSGGNTYYADSVKGRFTISRDNAKTSVYLEMNSLNPEDTAVYDCAARKLYGSPEHGYGGQGTQVTVSS | high polyreactivity
QVQLVESGGGLVQAGGSLRLSCAASGIIFRWYAMGWYRQAPGKERELLAAITSSGGRTYYADSVKGRFTISRDNAKNTVYFQMNSLKPEDSAVYYCAASYYIVGWDPYDYWGQGTQVTVSS | high polyreactivity
QVQLVESGGGLVHAGGSLRLSCAASGRIFTWNAMGWYRQAPGKERELVARISSGTRTNYADSVKGRFTISRDNAKNTVYLQMNSLKPEDTAVYYCAAGYYYGYPPRDYWGQGTQVTVSS | high polyreactivity
QVQLVESGGGLVQAGGSLRLSCAASGLIFPGYAMGWYRQAPGKERELVAAISWSGGTTYYADSVKGRFTISRDNAKNTVYLQMNSLKPEDTAVYYCNAVYLQGYDYWGQGTQVTVSS | low polyreactivity
QVQLQESGGGLVQAGVSLRLSGAASGYISTFSSEMGWYRQAPVKERELVASIAPGCTTSYADSVKGRFTISRDNAKNTVYLQMNSLKPEDTAVYYCAVDYTVPASFGYWGQGTQVTVSS | high polyreactivity
QVQLVESGGGLVHAGGSLRLSCAASGRIFTSYVMGWYRQAPAKERELVAAITRSGGSTYYADSVKGRFTISRDNAKNTVYLQMISLKPEDTAVYYCNALTRRQKGGEGGGYWGQGTQVTVSS | high polyreactivity
QVQLVESGGGLVQAGGSLLLSCAASGITSWYYVMGWYRQAPGKERELVAAITRSGGSTYYADSVKGRFTISRDTAKNTVFLQMNSLKPEDTAVYYCAARSYPQRWTTYPYGYWGQGTQVTVSS | high polyreactivity
QVQLVESGGGLVQAGCSLRLICAASGRIFSTYAMGWYRQAPGKERELVAAITSRGGSTYYADSVKGRFTISRDNAKNTVYLQMNSLKPEDTAVYYCATESPYKWGGYRFYYWGQGTQVTVSS | high polyreactivity
QVQLVESGGGLVQAGGSLRLSCAASGRILRWNAMGWYRQAPGKEREMVAAIDWRGGSTYYADSVKGRFTISRDNAKNTVYLQMNSLKPEDTAVYYCAVDYYPYEVSYVRMDYWGQGTQVTVSS | low polyreactivity
QVQLVESGGGLVKAGGSLRLSCAASGRIFTANAMGWYRQAPGKEREFVAAITTSDGTYYADSVKGRFTISRDNAKNTVYLQMNSLKPEDTAVYYGATDTATYPTAMDYWGQGTQVTVSS | low polyreactivity

Source: the nanobody polyreactivity screen of Harvey et al. (2022)
